Measured values reported in patent US20190119346A1 (Stanford University, published 2019).

T1: biotinylated IL-2Rβ ectodomain (C-terminal biotin acceptor peptide and hexahistidine tag) (human, UniProt P14784 27-240, C-terminally biotinylated (biotin acceptor peptide, BirA ligase))
T1 construct: range 1-214; Staining reagent for yeast; also called tetrameric IL-2Rβ; monomeric IL-2Rβ
T1 sequence: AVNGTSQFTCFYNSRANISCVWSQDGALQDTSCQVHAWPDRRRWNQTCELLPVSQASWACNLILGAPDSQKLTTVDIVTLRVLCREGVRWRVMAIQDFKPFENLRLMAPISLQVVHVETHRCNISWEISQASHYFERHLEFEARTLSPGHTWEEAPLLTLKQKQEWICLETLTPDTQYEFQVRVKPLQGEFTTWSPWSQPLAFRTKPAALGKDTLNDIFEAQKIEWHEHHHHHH

T2: human IL-2Rβ ectodomain (amino acids 1-214), C-terminal hexahistidine tag (human, UniProt P14784 27-240)
T2 construct: range 1-214; also called CD122; IL-2Rβ ECD
T2 sequence: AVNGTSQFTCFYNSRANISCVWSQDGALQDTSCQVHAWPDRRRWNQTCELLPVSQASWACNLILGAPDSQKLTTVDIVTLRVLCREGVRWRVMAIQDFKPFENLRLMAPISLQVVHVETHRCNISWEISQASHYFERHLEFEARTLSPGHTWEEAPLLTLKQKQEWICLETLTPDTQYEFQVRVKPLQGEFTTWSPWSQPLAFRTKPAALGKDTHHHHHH


Experiments:
[1] = target: CD25 (IL-2Rα) on CD25+ YT-1 cells (human) (UniProt P01589); experiment: cell-based or functional assay
CD25 (IL-2Rα) on CD25+ YT-1 cells (human), sequence (P01589 22-272): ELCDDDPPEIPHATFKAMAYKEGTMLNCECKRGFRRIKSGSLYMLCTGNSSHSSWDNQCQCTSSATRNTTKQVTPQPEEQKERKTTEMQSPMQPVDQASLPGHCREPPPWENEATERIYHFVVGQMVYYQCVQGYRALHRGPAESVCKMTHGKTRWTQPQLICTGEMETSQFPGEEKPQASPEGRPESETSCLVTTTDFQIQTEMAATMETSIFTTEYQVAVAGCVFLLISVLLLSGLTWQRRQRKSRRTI

[2] = target: T1, biotinylated IL-2Rβ ectodomain …; experiment: yeast clone screen: labeling with 5 nM IL-2Rβ and then SAV-PE
Experimental: Selection of second generation IL-2 library: The library was subjected to five rounds of selection against IL-2Rβ (FIG. 2B). This selection method was performed exactly as with the first generation library, only with modifications to the concentrations of IL-2Rβ used (round 1—1 μM, round 2—100 nM, round 3—30 nM, round 4—30 nM, round 5—10 nM, all monomeric IL-2Rβ). Upon conclusion of selections, round four and round five yeast cultures were spread on SD-CAA plates, which yielded individual yeast colonies. 48 individual yeast clones from both rounds were grown in 96-well block format and screened by labeling with 5 nM IL-2Rβ and then SAV-PE.

[3] = target: T2, human IL-2Rβ ectodomain (amino acids …); experiment: SPR
Experimental: Dissociation was then tracked for 200 s. An irrelevant biotinylated protein was immobilized in the reference channel to subtract non-specific binding from the measurements. Experiments were carried out in HBS-P+ buffer (GE Healthcare) supplemented with 0.2% BSA at 25° C. All binding studies were performed at a flow rate of […] to minimize mass transport contributions and prevent rebinding of the analyte. For all measurements, data analysis and determination of equilibrium and kinetic parameters were implemented using the Biacore T100 evaluation software version 2.0 assuming a 1:1 Langmuir binding model.

[4] = target: T2, human IL-2Rβ ectodomain (amino acids …); experiment: SPR (Example 10), recombinant protein
[5] = target: T2, human IL-2Rβ ectodomain (amino acids …); experiment: surface plasmon resonance
[6] = target: T2, human IL-2Rβ ectodomain (amino acids …); experiment: SPR affinities of D10 and wild-type IL-2, told with the structure

| binding result [2] | Kd [4] [nM] | koff [5] [s⁻¹] | Molecule | other results |
| --- | --- | --- | --- | --- |
| binds | – | – | yeast-displayed IL-2 clone H9 (ligand, Clone of the second generation yeast library; not shown: yeast display fusion partner and linker encoded by vector pCT302) APTSSSTKKTQLQLEHLLLDLQMILNGINNYKNPKLTRMLTFKFYMPKKATELKHLQCLEEELKPLEEVLNLAQSKNFHFDPRDVVSNINVFVLELKGSETTFMCEYADETATIVEFLNRWITFCQSIISTLT | – |
| binds | – | – | yeast-displayed IL-2 clone C5 (ligand, Clone of the second generation yeast library; not shown: yeast display fusion partner and linker encoded by vector pCT302) APTSSSTKKTQLQLEHLLLDLQMILNGINNYKNPKLTRMLTFKFYMPKKATELKHLQCLEEELKPLEEVLNLANSKNFHVTPRDVVSNINVFVLELKGSETTFMCEYADETATIVEFLNRWITFCQSIISTLT | – |
| binds | – | – | yeast-displayed IL-2 clone E10 (ligand, Clone of the second generation yeast library; not shown: yeast display fusion partner and linker encoded by vector pCT302) APTSSSTKKTQLQLEHLLLDLQMILNGINNYKNPKLTRMLTFKFYMPKKATELKHLQCLEEELKPLEEVLNLASSKNFHFDPRDVVSNINVFVLELKGSETTFMCEYADETATIVEFLNRWITFCQSIISTLT | – |
| binds | – | – | yeast-displayed IL-2 clone H4 (ligand, Clone of the second generation yeast library; not shown: yeast display fusion partner and linker encoded by vector pCT302) APTSSSTKKTQLQLEHLLLDLQMILNGINNYKNPKLTRMLTFKFYMPKKATELKHLQCLEEELKPLEEVLNLASSKNFHLTPRDVISNINVFVLELKGSETTFMCEYADETATIVEFLNRWITFCQSIISTLT | – |
| binds | – | – | yeast-displayed IL-2 clone B1 (ligand, Clone of the second generation yeast library; not shown: yeast display fusion partner and linker encoded by vector pCT302) APTSSSTKKTQLQLEHLLLDLQMILNGINNYKNPKLTRMLTFKFYMPKKATELKHLQCLEEELKPLEEVLNLANSKNFHFDPRDVVSNVNVFVLELKGSETTFMCEYADETATIVEFLNRWITFCQSIISTLT | – |
| binds | – | – | yeast-displayed IL-2 clone D10 (ligand, Clone of the second generation yeast library; not shown: yeast display fusion partner and linker encoded by vector pCT302) APTSSSTKKTQLQLEHLLLDLQMILNGINNYKNPKLTRMLTFKFYMPKKATELKHLQCLEEELKPLEEVLNLAHSKNFHFDPRDVVSNINVFVLELKGSETTFMCEYADETATIVEFLNRWITFCQSIISTLT | – |
| – | 1.3 | 0.0056 | IL-2 mutein H9 (ligand, also called super-IL-2; super-2) APTSSSTKKTQLQLEHLLLDLQMILNGINNYKNPKLTRMLTFKFYMPKKATELKHLQCLEEELKPLEEVLNLAQSKNFHFDPRDVVSNINVFVLELKGSETTFMCEYADETATIVEFLNRWITFCQSIISTLTHHHHHH | Kd [5]: 1.4 nM; kon [5]: 4.1e+06 M⁻¹ s⁻¹ |

The next lines start with the molecule.

| Molecule | binding result [2] | Kd [4] [nM] | koff [5] [s⁻¹] | other results |
| --- | --- | --- | --- | --- |
| IL-2 F42A (from UniProt P60568 21-153) (ligand) | – | – | – | STAT5 phosphorylation dose response on CD25+ YT-1 cells [1]: 1 log |
| yeast-displayed IL-2 clone G8 (ligand, Clone of the second generation yeast library; not shown: yeast display fusion partner and linker encoded by vector pCT302) APTSSSTKKTQLQLEHLLLDLQMILNGINNYKNPKLTRMLTFKFYMPKKATELKHLQCLEEELKPLEEVLNLANSKNFHFDPRDVVSNINVFVLELKGSETTFMCEYADETATIVEFLNRWITFCQSIISTLT | binds | – | – | – |
| H9-RET (H9 with L18R, Q22E and Q126T) (ligand) APTSSSTKKTQLQLEHLRLDLEMILNGINNYKNPKLTRMLTFKFYMPKKATELKHLQCLEEELKPLEEVLNLAQSKNFHFDPRDVVSNINVFVLELKGSETTFMCEYADETATIVEFLNRWITFCTSIISTLTHHHHHH | – | – | – | binding result [3]: binds |
| IL-2 mutein H4 (ligand) APTSSSTKKTQLQLEHLLLDLQMILNGINNYKNPKLTRMLTFKFYMPKKATELKHLQCLEEELKPLEEVLNLASSKNFHLTPRDVISNINVFVLELKGSETTFMCEYADETATIVEFLNRWITFCQSIISTLTHHHHHH | – | 14 | 0.013 | – |
| IL-2 mutein C5 (ligand) APTSSSTKKTQLQLEHLLLDLQMILNGINNYKNPKLTRMLTFKFYMPKKATELKHLQCLEEELKPLEEVLNLANSKNFHVTPRDVVSNINVFVLELKGSETTFMCEYADETATIVEFLNRWITFCQSIISTLTHHHHHH | – | 10 | 0.016 | – |
| IL-2 mutein G8 (ligand) APTSSSTKKTQLQLEHLLLDLQMILNGINNYKNPKLTRMLTFKFYMPKKATELKHLQCLEEELKPLEEVLNLANSKNFHFDPRDVVSNINVFVLELKGSETTFMCEYADETATIVEFLNRWITFCQSIISTLTHHHHHH | – | 1.5 | 0.0049 | – |
| IL-2 mutein B1 (ligand) APTSSSTKKTQLQLEHLLLDLQMILNGINNYKNPKLTRMLTFKFYMPKKATELKHLQCLEEELKPLEEVLNLANSKNFHFDPRDVVSNVNVFVLELKGSETTFMCEYADETATIVEFLNRWITFCQSIISTLTHHHHHH | – | 1.6 | 0.005 | – |
| IL-2 mutein D10 (ligand, also called IL-2 D10; super-2) APTSSSTKKTQLQLEHLLLDLQMILNGINNYKNPKLTRMLTFKFYMPKKATELKHLQCLEEELKPLEEVLNLAHSKNFHFDPRDVVSNINVFVLELKGSETTFMCEYADETATIVEFLNRWITFCQSIISTLTHHHHHH | – | 1.2 | 0.0051 | fold affinity gain [6]: ~300 fold; Kd [5]: 1.3 nM; kon [5]: 4.1e+06 M⁻¹ s⁻¹ |
| IL-2 mutein E10 (ligand) APTSSSTKKTQLQLEHLLLDLQMILNGINNYKNPKLTRMLTFKFYMPKKATELKHLQCLEEELKPLEEVLNLASSKNFHFDPRDVVSNINVFVLELKGSETTFMCEYADETATIVEFLNRWITFCQSIISTLTHHHHHH | – | 1.3 | 0.0055 | – |
